This note sets out measurements from US8067005.

For the assay, the target named is T1, human TNF (human, UniProt P01375 77-233).
T1 construct: Passed over captured antibody in solution; also called human TNFα
The assay can be described thus: SPR (BIAcore); antibody captured by immobilized anti-Fab′ antibody, human TNF passed over.

Usually Kd stands for the concentration at which binding is half-saturated. High values mean a looser complex, low ones a tighter complex.

T1 sequence (P01375 77-233 limits assumed): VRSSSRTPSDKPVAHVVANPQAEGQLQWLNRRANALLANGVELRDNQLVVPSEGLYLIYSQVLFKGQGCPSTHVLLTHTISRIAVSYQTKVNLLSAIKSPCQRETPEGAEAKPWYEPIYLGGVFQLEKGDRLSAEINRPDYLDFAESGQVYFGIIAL

B1: hTNF40 IgG (antibody, V domains shown)
VH: QIQLVQSGPELKKPGETVKISCKASGYVFTDYGMNWVKQAPGKAFKWMGWINTYIGEPIYVDDFKGRFAFSLETSASTAFLQINNLKNEDTATYFCARGYRSYAMDYWGQGTSVTVSS
VL: DIVMTQSQKFMSTSVGDRVSVTCKATQNVGTNVAWYQQKPGQSPKALIYSASFLYSGVPYRFTGSGSGTDFTLTISTVQSEDLAEYFCQQYNIYPLTFGAGTKLELKR
On to B1, for which the Kd was determined as 0.179 nM.
